From US20160083712

How the values were obtained:
Nedd8-AMC = Nedd8-AMC (UniProt Q15843)
[1] = tested on: CSN6, soluble MPN domain construct of Example 2
Chain of CSN6, soluble MPN domain construct of Example 2 (chain, as listed by the source): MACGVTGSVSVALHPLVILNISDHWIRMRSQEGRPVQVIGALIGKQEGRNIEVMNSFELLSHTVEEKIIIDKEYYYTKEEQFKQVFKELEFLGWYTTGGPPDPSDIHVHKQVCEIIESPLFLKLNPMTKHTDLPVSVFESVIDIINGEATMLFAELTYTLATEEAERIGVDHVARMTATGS

Chain of Nedd8-AMC (Q15843 whole entry, looked up, the tested form may be a part): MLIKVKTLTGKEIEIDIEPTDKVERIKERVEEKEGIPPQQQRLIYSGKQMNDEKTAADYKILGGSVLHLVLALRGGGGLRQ
Chain of CSN5 WT, soluble MPN domain construct of Example 2 (chain, as listed by the source): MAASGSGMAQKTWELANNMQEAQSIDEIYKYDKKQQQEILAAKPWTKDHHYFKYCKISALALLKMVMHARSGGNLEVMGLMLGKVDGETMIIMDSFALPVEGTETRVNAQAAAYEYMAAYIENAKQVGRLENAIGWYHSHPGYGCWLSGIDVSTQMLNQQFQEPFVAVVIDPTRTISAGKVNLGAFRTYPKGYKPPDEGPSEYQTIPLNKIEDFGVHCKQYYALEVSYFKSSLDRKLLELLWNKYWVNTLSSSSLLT
Chain of GST-CSN51-257 R106T (GST-tagged human CSN5 residues 1-257 with Arg106 substituted by threonine) (chain, as listed by the source R106T): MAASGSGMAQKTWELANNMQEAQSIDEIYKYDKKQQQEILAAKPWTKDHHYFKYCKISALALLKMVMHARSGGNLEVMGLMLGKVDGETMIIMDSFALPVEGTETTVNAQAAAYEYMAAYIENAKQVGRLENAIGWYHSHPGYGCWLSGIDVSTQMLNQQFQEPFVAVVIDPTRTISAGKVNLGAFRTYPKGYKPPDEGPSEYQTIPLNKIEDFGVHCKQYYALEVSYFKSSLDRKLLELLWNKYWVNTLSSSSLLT
Chain of CSN5 R106T, activatory mutant form, construct of Example 2 (chain, as listed by the source R106T): as above
Chain of CSN51-257 R106T (human CSN5 residues 1-257 with Arg106 substituted by threonine) (chain, as listed by the source R106T): as above

Row | Substance | isopeptidase activity (hydrolysis of Nedd8-AMC, fluorescence) (Nedd8-AMC) | isopeptidase activity (hydrolysis of LRGG-AMC, fluorescence) (LRGG-AMC) | CSN5 isopeptidase activity (substrates LRGG-AMC, Nedd8-AMC, Nedd8-cullin 1) [1]
1 | CSN51-257 wild type (human CSN5 residues 1-257, GST tag cleaved off) | the CSN51-257 WT form is void of isopeptidase activity | – | –
2 | GST-CSN51-257 wild type (GST-tagged human CSN5 residues 1-257) | – | the CSN51-257 WT form is void of isopeptidase activity | –
3 | CSN51-257 R106T (human CSN5 residues 1-257 with Arg106 substituted by threonine) | the R106T substitution is sufficient to restore constitutive isopeptidase activity against two isopeptidase substrates, LRGG-AMC and Nedd8-AMC | – | –
4 | CSN5 R106T, activatory mutant form, construct of Example 2 | – | – | this effect is consistently more marked in the context of the activatory mutant form of CSN5, CSN5 R106T than the WT form
5 | GST-CSN51-257 R106T (GST-tagged human CSN5 residues 1-257 with Arg106 substituted by threonine) | – | the R106T substitution is sufficient to restore constitutive isopeptidase activity against two isopeptidase substrates, LRGG-AMC and Nedd8-AMC | –
6 | CSN5 WT, soluble MPN domain construct of Example 2 | – | – | CSN6 is able to significantly enhance CSN5 isopeptidase activity
